Holding throughout (assay): cell-based or functional assay
In assay [1] the target is VEGFR NatE MESA receptor pair: CTEVp (190K) receptor with a VEGFR1 signal sequence, ECD, and TMD paired with a NTEVp (WT) receptor with a VEGFR2 signal sequence, ECD, and TMD (human; tobacco etch virus).
Assay [2] concerns the target IL-10R NatE MESA receptor pair in which both ECDs are IL-10Rα (human; tobacco etch virus).
Assay [3] concerns the target IL-10R NatE MESA receptor pair in which both ECDs are IL-10Rβ (human; tobacco etch virus).
Assay [4] addresses IL-10R NatE MESA receptor pair: CTEVp receptor with an IL-10Ra signal sequence, ECD, and TMD paired with a NTEVp receptor with an IL-10Rb ECD and TMD and a hCD8a signal sequence (human; tobacco etch virus).

Sequence of human vascular endothelial growth factor VEGFA165 (P15692 other isoform, or with tags, fused parts or gaps limits assumed): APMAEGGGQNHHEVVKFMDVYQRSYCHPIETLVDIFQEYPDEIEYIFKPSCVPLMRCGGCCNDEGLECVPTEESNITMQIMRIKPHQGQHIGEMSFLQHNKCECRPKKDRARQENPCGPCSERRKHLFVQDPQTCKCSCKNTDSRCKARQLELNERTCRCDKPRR

Take “human vascular endothelial growth factor VEGFA165 (from UniProt P15692 27-191) (ligand)”: the dose of recombinant VEGF giving the highest reporter signal, genomically integrated receptors in HEK293FT cells in assay [1] turned out to be 100 ng/mL.

In turn, “human interleukin 10 (IL-10) (from UniProt P22301 19-178) (ligand)” yielded a fold induction of reporter expression, transfected receptors with co-expressed human IL-10 (fold induction) in assay [2] of 1. This substance registered a fold induction of reporter expression, transfected receptors with co-expressed human IL-10 (fold induction) in assay [3] of 1. For the same substance, in assay [4], the IL-10 concentration at which reporter expression plateaus, genomically integrated receptors in Jurkat T cells turned out to be 250 ng/mL; the IL-10 concentration at which reporter expression saturates, genomically integrated receptors in HEK293FT cells was determined as 250 ng/mL; the lowest IL-10 concentration distinguished by reporter expression, genomically integrated receptors in HEK293FT cells was 16 ng/mL; the lowest IL-10 dose detected, Jurkats sorted for the top octile of mNeonGreen expression amounted to 2 ng/mL. Also, the lowest IL-10 dose with a significant increase in reporter expression, antibiotic-selected Jurkat T cells in assay [4] was 16 ng/mL.

(Values after patent US20250313607A1.)
